Results on one substance are retold here after PMC8339130.

Experiment [1] addresses HIV-1 Gag matrix domain (MA) (HIV-1). Briefly: crystal structure; MA co-crystallised with IP6; three crystal forms: cryogenic MA_IP6_R32 (2.40 Å), cryogenic MA_IP6_C2 (2.72 Å, six chains in the asymmetric unit), ambient-temperature SFX MA_IP6_SFX_P1 (3.5 Å); PEG 3350 or PEG 4000/2-propanol, 100 mM MES pH 6.0-6.5.
Experiment [2] has the same target. The experiment is described as above. The source holds these as a separate data set.

Like-named read-outs stand apart in the source and are kept apart here.

The stoichiometry N is the number of molecules, sites or subunits per partner or assembly. For “HIV-1 Gag matrix domain (MA) (domain or fragment)”, the stoichiometry N amounted to 6 in experiment [1] and 3 in experiment [2].
